Experimental data taken from article PMC8466238, “Development of High Affinity Calcitonin Analog Fragments Targeting Extracellular Domains of Calcitonin Family Receptors” (Biomolecules, 2021).
Values joined by “and” are separate entries in the source; they are usually repeats but may differ in a detail not shown here. Equal values may be shown once. Read-outs that look alike come from different tables or passages of the source. Where a SMILES comes first, the peptide text is derived from it. Where no end group is shown, it is not given here. [ ]: non-standard residue; d: D form. Hyp = O=C(O)[C@@H]1C[C@@H](O)CN1

T1: CTR ECD (Homo sapiens, UniProt P30988)
T1 construct: pHLsec/hCTR.34–141-H6 (H-pSL003); H6 (His6) (C); made in house; host or cells: HEK293T
T1 sequence (P30988 34-141): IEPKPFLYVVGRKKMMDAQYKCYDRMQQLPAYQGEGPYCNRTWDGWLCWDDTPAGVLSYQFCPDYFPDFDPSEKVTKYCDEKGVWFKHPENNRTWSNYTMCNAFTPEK

T2: calcitonin receptor extracellular domain (hCTR.34–141-H6) (human, UniProt P30988 34-141)
T2 construct: human calcitonin receptor (CTR), extracellular domain, residues 34-141; Secreted from a pHLsec-based vector; also called CTR ECD; purified CTR ECD; source: HEK293T, transiently transfected, secreted to cell culture media, purified (IMAC, SEC)
T2 sequence (looked up): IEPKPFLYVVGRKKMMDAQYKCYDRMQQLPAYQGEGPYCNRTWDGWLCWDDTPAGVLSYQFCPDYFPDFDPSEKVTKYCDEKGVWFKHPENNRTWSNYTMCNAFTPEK

T3: RAMP2-CTR ECD fusion protein (hRAMP2.55–140-(GSA)3-hCTR.34–141-H6) (human, UniProt O60895 55-140; P30988 34-141)
T3 construct: human receptor activity-modifying protein 2 (RAMP2), extracellular domain, residues 55-140; linker, printed as (GSA)3; human calcitonin receptor (CTR), extracellular domain, residues 34-141; Secreted from a pHLsec-based vector; also called AMY receptor 2 ECD; RAMP2 ECD-CTR ECD fusion; source: HEK293T, transiently transfected, secreted to cell culture media, purified (IMAC, SEC)
T3 chain: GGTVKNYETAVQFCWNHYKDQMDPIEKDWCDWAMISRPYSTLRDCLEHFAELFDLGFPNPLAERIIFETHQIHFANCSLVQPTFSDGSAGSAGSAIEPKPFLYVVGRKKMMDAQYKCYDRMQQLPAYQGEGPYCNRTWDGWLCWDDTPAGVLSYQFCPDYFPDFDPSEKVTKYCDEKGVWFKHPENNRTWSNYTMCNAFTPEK

T4: RAMP1-CTR ECD fusion protein (hRAMP1.24–111-(GSA)3-hCTR.34–141-H6) (human, UniProt O60894 24-111; P30988 34-141)
T4 construct: human receptor activity-modifying protein 1 (RAMP1), extracellular domain, residues 24-111; linker, printed as (GSA)3; human calcitonin receptor (CTR), extracellular domain, residues 34-141; Secreted from a pHLsec-based vector; also called AMY receptor 1 ECD; RAMP1 ECD-CTR ECD fusion; source: HEK293T, transiently transfected, secreted to cell culture media, purified (IMAC, SEC)
T4 chain: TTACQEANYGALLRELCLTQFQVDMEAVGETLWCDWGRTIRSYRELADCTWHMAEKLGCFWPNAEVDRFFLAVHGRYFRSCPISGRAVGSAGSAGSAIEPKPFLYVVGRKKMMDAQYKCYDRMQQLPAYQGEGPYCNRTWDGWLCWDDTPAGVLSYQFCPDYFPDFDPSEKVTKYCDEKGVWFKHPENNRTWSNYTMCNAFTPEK

T5: RAMP3-CTR ECD fusion protein (hRAMP3.25–112-(GSA)3-hCTR.34–141-H6) (human, UniProt O60896 25-112; P30988 34-141)
T5 construct: human receptor activity-modifying protein 3 (RAMP3), extracellular domain, residues 25-112; linker, printed as (GSA)3; human calcitonin receptor (CTR), extracellular domain, residues 34-141; Secreted from a pHLsec-based vector; also called AMY receptor 3 ECD; RAMP3 ECD-CTR ECD fusion protein; source: HEK293S GnTI-, transiently transfected (PEI), secreted to cell culture media, purified (IMAC, SEC)
T5 chain: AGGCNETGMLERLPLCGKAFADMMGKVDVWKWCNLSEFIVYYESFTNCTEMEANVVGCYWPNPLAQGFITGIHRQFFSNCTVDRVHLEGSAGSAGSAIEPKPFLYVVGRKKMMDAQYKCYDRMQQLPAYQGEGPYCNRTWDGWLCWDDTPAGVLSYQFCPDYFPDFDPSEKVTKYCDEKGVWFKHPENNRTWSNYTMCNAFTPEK


Key:
CTR ECD = molecular target: T1, CTR ECD; test: FP competition peptide binding assay with purified CTR ECD, FITC-sCT(22–32) probe; settings: for Ki: CTR ECD 500 nM, FITC-sCT(22–32) 10 nM, mean ± SD of N = 3 independent experiments
Text: The overall procedures of FP peptide binding assay with receptor ECDs and FITC-labeled peptide probes were previously described. […] A SpectraiD5 (Molecular Devices, San Jose, CA, USA) was used to measure fluorescence polarization/anisotropy. Background (reaction buffer only) was subtracted for anisotropy calculation. For the SpectraiD5, G factor (0.38 for FITC-sCT(22–32) and 0.41 for FITC-AC413(6–25) and FITC-AC413(6–25) Y25P) was used to correct the instrumental bias for anisotropy calculation. The polarization (mP) of the FITC-peptide probes only (No receptor ECD) was set close to 50 mP. For the saturation binding assay, the anisotropy values were re-calculated when total fluorescence intensity was changed by more than 10% as previously described. […] Anisotropy values were used to produce non-linear regression curves with PRISM 5.0 (GraphPad software, San Diego, CA, USA) as previously described. KI indicates affinity values obtained from competition binding assay and it was calculated from the non-linear regression curves of anisotropy by using equations previously described. Concentrations of the FITC-labeled peptide and the total receptor protein and the affinity of the FITC-labeled peptide for the receptor protein were incorporated into the equations for the KI calculation of the competitive peptide ligand. Two technical replicates were used for each receptor concentration in the peptide-binding curve. SEM of the anisotropy values of the two replicates at each receptor concentration were presented as error bars in the representative peptide-binding curves. When the error bars were shorter than the height of the symbol, they were omitted in the representative curves. At least three independent peptide binding experiments were performed to obtain three independent peptide-binding curves. Mean and standard deviation of peptide ligand affinity were calculated from them.

[1] = molecular target: T2, calcitonin receptor extracellular …; test: fluorescence polarisation; competition binding, full curves: FITC-sCT(22–32) probe 10 nM, CTR ECD 500 nM, competitive peptide at multiple concentrations, all in solution; KI from non-linear regression of anisotropy; settings: both partners purified
[2] = molecular target: T3, RAMP2-CTR ECD fusion protein …; test: fluorescence polarisation; competition binding, full curves: FITC-AC413(6–25) Y25P probe 10 nM, RAMP1-CTR ECD 77 nM, RAMP2-CTR ECD 67 nM or RAMP3-CTR ECD 252 nM, competitive peptide at multiple concentrations, all in solution; KI from non-linear regression of anisotropy; settings: both partners purified
[3] = molecular target: T4, RAMP1-CTR ECD fusion protein …; test: as above; settings: both partners purified
[4] = molecular target: T5, RAMP3-CTR ECD fusion protein …; test: as above; settings: both partners purified
[5] = Figure 2b experiment set, read-out: pKI Mean ± SD (converted)
[6] = Figure 1d experiment set, pKI = –log10[KI] (M)

| Molecule | Ki [1] | pKI [1] | Ki [2] [nM] | pKI [2] | Ki [3] [nM] | pKI [3] | Ki [4] [nM] | pKI [4] | other results |
| --- | --- | --- | --- | --- | --- | --- | --- | --- | --- |
| C[C@@H](O)[C@H](NC(=O)[C@H](CC(=O)O)NC(=O)[C@@H](NC(=O)[C@H](CCCNC(=N)N)NC(=O)[C@@H]1CCCN1C(=O)[C@@H](N)Cc1ccc(O)cc1)[C@@H](C)O)C(=O)NCC(=O)N1C[C@H](O)C[C@H]1C(=O)NCC(=O)N[C@H](C(=O)N1CCC[C@H]1C(N)=O)[C@@H](C)O [sCT(22–32) N26D/S29HYP] (H-YPRTDTG[Hyp]GTP-NH2; N-terminus assumed) | – | – | – | – | – | – | – | – | Ki (CTR ECD; Figure 3b experiment set, read-out: pKI Mean ± SD (converted)): 3.16e-06 M; affinity decrease for the CTR ECD compared to sCT(22–32) with N26D/S29P mutations (CTR ECD; Figure 3b, ratio of KI values, versus sCT(22–32) N26D/S29P): 13 fold |
| YPRTDTGSGTP-NH2 [sCT(22–32) N26D] | – | – | – | – | – | – | – | – | Ki (CTR ECD; [5]): 9.77e-07 M; Ki (CTR ECD; [6]): 1e-06 M |
| YPRTDTGVGTP-NH2 [sCT(22–32) N26D/S29V] | – | – | – | – | – | – | – | – | Ki (CTR ECD; [5]): 5.89e-07 M |
| YPRTNTGPGTP-NH2 [sCT(22–32) S29P] | – | – | – | – | – | – | – | – | Ki (CTR ECD; [6]): 3.47e-07 M |
| YPRTNTGSGTP-NH2 (salmon calcitonin (sCT), residues 22-32; numbers count on: the mature 32-residue hormone; also called wild-type sCT(22–32); salmon calcitonin fragment 22–32; source: synthetic peptide (Genscript, HPLC-purified)) [sCT(22–32)] | 2030 nM and 1760 nM | 5.75 -log10(M) and 5.69 -log10(M) | 2800 | 5.55 -log10(M) | 2550 | 5.59 -log10(M) | 2560 | 5.59 -log10(M) | – |
| YPRTDTGPGT[Hyp]-NH2 (salmon calcitonin (sCT), residues 22-32, with N26D, S29P and P32HYP; numbers count on: the mature 32-residue hormone; Residue 32 is hydroxyproline, not plain proline; also called the mutated sCT(22–32); sCT(22–32) with the combined mutations (N26D, S29P, and P32HYP); source: synthetic peptide (Genscript, HPLC-purified)) [sCT(22–32) N26D/S29P/P32HYP] | 95 nM | 7.02 -log10(M) | 340 | 6.47 -log10(M) | 124 | 6.91 -log10(M) | 118 | 6.93 -log10(M) | – |
| YPRTDTG[Hyp]GTP-NH2 (N-terminus assumed; SMILES C[C@@H](O)[C@H](NC(=O)[C@H](CC(=O)O)NC(=O)[C@@H](NC(=O)[C@H](CCCNC(=N)N)NC(=O)[C@@H]1CCCN1C(=O)[C@@H](N)Cc1ccc(O)cc1)[C@@H](C)O)C(=O)NCC(=O)N1C[C@H](O)C[C@H]1C(=O)NCC(=O)N[C@H](C(=O)N1CCC[C@H]1C(N)=O)[C@@H](C)O, salmon calcitonin (sCT), residues 22-32, with N26D and S29HYP; printed as YPRTDTG[HYP]GTP-NH2, the hydroxyproline at 29 is written here as P; numbers count on: the mature 32-residue hormone; Residue 29 is hydroxyproline, not plain proline; source: synthetic peptide (Genscript, HPLC-purified)) [sCT(22–32) N26D/S29HYP] | 3180 nM | 5.5 -log10(M) | – | – | – | – | – | – | – |
| YPRTDTGVGTP-NH2 (salmon calcitonin (sCT), residues 22-32, with N26D and S29V; numbers count on: the mature 32-residue hormone; source: synthetic peptide (Genscript, HPLC-purified)) [sCT(22–32) N26D/S29V] | 591 nM | 6.23 -log10(M) | – | – | – | – | – | – | – |
| YPRTDTGAGTP-NH2 (salmon calcitonin (sCT), residues 22-32, with N26D and S29A; numbers count on: the mature 32-residue hormone; source: synthetic peptide (Genscript, HPLC-purified)) [sCT(22–32) N26D/S29A] | 437 nM | 6.36 -log10(M) | – | – | – | – | – | – | – |
| YPRTDTGPGTP-NH2 (salmon calcitonin (sCT), residues 22-32, with N26D and S29P; numbers count on: the mature 32-residue hormone; source: synthetic peptide (Genscript, HPLC-purified)) [sCT(22–32) N26D/S29P] | 239 nM and 314 nM | 6.62 -log10(M) and 6.5 -log10(M) | 470 | 6.33 -log10(M) | 381 | 6.42 -log10(M) | 333 | 6.48 -log10(M) | – |
| YPRTDTGSGTP-NH2 (salmon calcitonin (sCT), residues 22-32, with N26D; numbers count on: the mature 32-residue hormone; also called sCT(22–32) N26D backbone peptide; source: synthetic peptide (Genscript, HPLC-purified)) [sCT(22–32) N26D] | 980 nM and 1000 nM | 6.01 -log10(M) and 6 -log10(M) | – | – | – | – | – | – | – |

Continued, in another order:

| Ki [1] | pKI [1] | Ki [2] [nM] | pKI [2] | Ki [3] [nM] | pKI [3] | Ki [4] [nM] | pKI [4] | Molecule | other results |
| --- | --- | --- | --- | --- | --- | --- | --- | --- | --- |
| 343 nM | 6.46 -log10(M) | – | – | – | – | – | – | YPRTNTGPGTP-NH2 (salmon calcitonin (sCT), residues 22-32, with S29P; numbers count on: the mature 32-residue hormone; source: synthetic peptide (Genscript, HPLC-purified)) [sCT(22–32) S29P] | – |
| 887 nM | 6.05 -log10(M) | 1430 | 5.85 -log10(M) | 887 | 6.05 -log10(M) | 995 | 6 -log10(M) | YPRTNTGSGT[Hyp]-NH2 (N-terminus assumed; SMILES C[C@@H](O)[C@H](NC(=O)[C@H](CC(N)=O)NC(=O)[C@@H](NC(=O)[C@H](CCCNC(=N)N)NC(=O)[C@@H]1CCCN1C(=O)[C@@H](N)Cc1ccc(O)cc1)[C@@H](C)O)C(=O)NCC(=O)N[C@@H](CO)C(=O)NCC(=O)N[C@H](C(=O)N1C[C@H](O)C[C@H]1C(N)=O)[C@@H](C)O, salmon calcitonin (sCT), residues 22-32, with P32HYP; numbers count on: the mature 32-residue hormone; Residue 32 is hydroxyproline, not plain proline; source: synthetic peptide (Genscript, HPLC-purified)) [sCT(22–32) P32HYP] | – |
